Source: publication PMC4319847 (PLoS ONE, 2015)

Target: Full-length human importin-α1 (h-importin-α1) (1–526) (human, UniProt P52292 1-526)
Assay: ITC
Settings: both partners purified

B1: SV40 NLS peptide (PKKKRKV) (peptide)
peptide: PKKKRKV
notes: source: synthetic peptide
Kd: 102 ± 11 µM
